B1: Elongation factor 1 alpha-like protein (Schizosaccharomyces pombe (strain ATCC 38366 / 972)), O74774 (parent)
chain: MSRHRDVKNLDLDDYELDEEPGEEELTEEQEEEFRSAVATVRETLLGVPISEKEIADTVWYYYFDVEKSVNYLLQKASSKAGAKEKQNTDSQKEKKQNKSKEALADAKDPLDESSNGIKNLSLNKNDEPAFQTNGEVKMKNSSESDNQPEKKKIKKQNPTDLVSVPEIFEQSNPKPVVHLVVTGHVDSGKSTMLGRIMFELGEINSRSMQKLHNEAANSGKGSFSYAWLLDTTEEERARGVTMDVASTTFESDKKIYEIGDAPGHRDFISGMIAGASSADFAVLVVDSSQNNFERGFLENGQTREHAYLLRALGISEIVVSVNKLDLMSWSEDRFQEIKNIVSDFLIKMVGFKTSNVHFVPISAISGTNLIQKDSSDLYKWYKGPTLLSALDQLVPPEKPYRKPLRLSIDDVYRSPRSVTVTGRVEAGNVQVNQVLYDVSSQEDAYVKNVIRNSDPSSTWAVAGDTVTLQLADIEVNQLRPGDILSNYENPVRRVRSFVAEIQTFDIHGPILSGSTLVLHLGRTVTSVSLKIVTVNNKRSRHIASRKRALVRISFLDGLFPLCLAEECPALGRFILRRSGDTVAAGIVKELC
partner: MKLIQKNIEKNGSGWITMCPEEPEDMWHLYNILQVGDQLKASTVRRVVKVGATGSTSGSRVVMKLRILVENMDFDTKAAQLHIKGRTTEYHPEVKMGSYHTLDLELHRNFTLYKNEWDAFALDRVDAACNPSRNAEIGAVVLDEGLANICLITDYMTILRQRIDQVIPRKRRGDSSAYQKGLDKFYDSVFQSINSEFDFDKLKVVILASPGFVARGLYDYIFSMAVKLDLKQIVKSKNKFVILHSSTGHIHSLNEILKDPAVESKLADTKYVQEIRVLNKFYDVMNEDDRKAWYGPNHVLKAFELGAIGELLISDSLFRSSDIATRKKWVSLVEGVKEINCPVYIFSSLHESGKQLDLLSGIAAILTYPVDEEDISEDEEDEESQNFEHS
B2: Protein dom34 (Schizosaccharomyces pombe (strain ATCC 38366 / 972)), Q9USL5 (parent)
chain: B1 partner
partner: B1 chain

Variants of: B1
Conditions: with dom34_schpo dom34, Q9USL5

| Variant | effect of a mutation on the interaction |
| --- | --- |
| D411A | decreasing interaction |
| R480A | decreasing interaction |
| R523A | decreasing interaction |

The remaining lines, values ahead:

| effect of a mutation on the interaction | Variant |
| --- | --- |
| decreasing interaction | K531A |
| decreasing interaction | R541A |
| decreasing interaction | D557A |

Variants of: B2
Conditions: with hbs1_schpo hbs1, O74774

| effect of a mutation on the interaction | Variant |
| --- | --- |
| decreasing interaction | R162A |
| decreasing interaction | D164A |
